Assay results taken from article PMC12055985.

Target: gH/gL expressed on the surface of CHO-K1 cells (UniProt P89445)
Assay: ELISA

Chain of gH/gL expressed on the surface of CHO-K1 cells (P89445 19-838, chain 1 of 2): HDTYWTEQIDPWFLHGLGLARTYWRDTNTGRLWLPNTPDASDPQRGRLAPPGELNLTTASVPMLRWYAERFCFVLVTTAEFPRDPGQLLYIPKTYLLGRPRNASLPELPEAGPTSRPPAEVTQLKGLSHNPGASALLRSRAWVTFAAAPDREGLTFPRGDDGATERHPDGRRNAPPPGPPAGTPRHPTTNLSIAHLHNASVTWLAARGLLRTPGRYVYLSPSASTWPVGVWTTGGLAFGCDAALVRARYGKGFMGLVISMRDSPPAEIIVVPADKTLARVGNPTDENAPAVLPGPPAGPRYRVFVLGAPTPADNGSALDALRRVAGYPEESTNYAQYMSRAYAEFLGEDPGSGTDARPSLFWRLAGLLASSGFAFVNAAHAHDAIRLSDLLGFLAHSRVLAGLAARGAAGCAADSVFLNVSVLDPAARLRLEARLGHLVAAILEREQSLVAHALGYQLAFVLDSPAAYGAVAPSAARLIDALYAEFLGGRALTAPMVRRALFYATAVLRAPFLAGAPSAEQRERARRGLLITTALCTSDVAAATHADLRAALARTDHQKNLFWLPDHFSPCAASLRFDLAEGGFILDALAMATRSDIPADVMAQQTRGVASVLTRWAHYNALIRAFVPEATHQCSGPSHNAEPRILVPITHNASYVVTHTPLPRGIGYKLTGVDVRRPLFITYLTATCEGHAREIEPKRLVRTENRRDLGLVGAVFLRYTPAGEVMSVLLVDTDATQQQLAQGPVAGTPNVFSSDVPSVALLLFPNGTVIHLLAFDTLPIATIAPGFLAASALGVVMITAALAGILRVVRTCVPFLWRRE
Chain of gH/gL expressed on the surface of CHO-K1 cells (P28278 17-224, chain 2 of 2, further chain): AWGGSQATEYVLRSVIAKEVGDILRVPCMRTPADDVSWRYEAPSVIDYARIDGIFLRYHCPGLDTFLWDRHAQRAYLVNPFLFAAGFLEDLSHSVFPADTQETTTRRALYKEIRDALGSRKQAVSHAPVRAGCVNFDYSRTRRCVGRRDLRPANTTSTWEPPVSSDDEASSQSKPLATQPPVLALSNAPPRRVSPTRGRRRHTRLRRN

**Q.** How did the EC50 turn out when “HSV-2 gD (aa1-275) with C-terminal His tag (domain or fragment)” was run?
**A.** The EC50 was 1280 nM.
